Changes are numbered by the printed parent chain. Several values for one entry are separate records, joined by “and”; a condition that tells them apart may be missing. Identical values can stand only once.
B1: TMC2206, humanized hIgG4 anti-alpha 2 integrin antibody (comparator) (antibody, V domains shown)
VH: QVQLQESGPGLVKPSETLSLTCTVSGFSLTNYGIHWIRQPPGKGLEWLGVIWARGFTNYNSALMSRLTISKDNSKNQVSLKLSSVTAADTAVYYCARANDGVYYAMDYWGQGTLVTVSS
VL: DFVMTQSPAFLSVTPGEKVTITCSAQSSVNYIHWYQQKPDQAPKKLIYDTSKLASGVPSRFSGSGSGTDYTFTISSLEAEDAATYYCQQWTTNPLTFGQGTKVEIKR
B2: humanized anti-α2-integrin mAb LC5/HC7 (antibody, IgG4, V domains shown)
VH: QVQLVQSGAEVKKPGASVKVSCKASGYTFTSYWMNWVRQAPGQGLEWIGRIDPSDSETHYAQKFQGRATLTVDKSTSTAYMELSSLRSEDTAVYYCAKVGRGYFDYWGQGTLVTVSS
VL: NIVLTQSPASLAVSPGQRATITCRASESVESYGNSFIYWYQQKPGQPPKLLIYLASNLASGVPARFSGSGSRTDFTLTINPVEADDTANYYCQQNNEDPYTFGGGTKLEIK
B3: chimeric anti α2-integrin-Fab (6xHis tagged CH1 of human IGHG1) (Fab, V domains shown)
VH: QVQLHQPGAELVKPGAPVKLSCKASGYTFTSYWMNWVKQRPGRGLEWIGRIDPSDSETHYNQKFKDKATLTVDKSSSTAYIQLSSLTSEDSAVYYCAKVGRGYFDYWGQGTTLTVSS
VL: NIVLTQSPASLAVSLGQRATISCRASESVESYGNSFIYWYQQKPGQAPKLLIYLASNLASGVPARFSGSGSRTDFTLTIDPVEADDAATYYCQQNNEDPYTFGGGTKLEIKR
notes: also called Fab fragment; Fab frament
B4: humanized anti-α2-integrin mAb LC3/HC3 (antibody, IgG4, V domains shown)
VH: B3 VH with P17S, S116V
VL: B2 VL with A9S, A12S, P15V, T22S, P47A, N80D, E83Q, D85E, T87A, N89T
B5: humanized anti-α2-integrin mAb LC2/HC2 (antibody, IgG4, V domains shown)
VH: B3 VH with R43Q, D55E, K67R, S116V
VL: B2 VL with A9S, P15V, T22S, N34Q, Q46K, P47A, N80D, E83Q, T87A, N89T
B6: humanized anti-α2-integrin mAb LC4/HC6 (antibody, IgG4, V domains shown)
VH: B3 VH with P17S, D55E, V93K, S116V
VL: NIVLTQSPSSLSVSVGQRATISCRASESVESYGQSFIYWYQQKPGQAPKLLIYLASNLASGVPARFSGSGSRTDFTLTIDPVQAEDAATYYCQQNNEDPYTFGGGTKLEIK
B7: humanized anti-α2-integrin mAb LC1/HC1 (antibody, IgG4, V domains shown)
VH: B3 VH with R43Q, K67R, S116V
VL: B6 VL with S12A, Q34N, Q46K, E85D
B8: humanized anti-α2-integrin mAb LC4/HC5 (antibody, IgG4, V domains shown)
VH: B3 VH with P17S, D55E, S116V
VL: B6 VL
B9: humanized anti-α2-integrin mAb LC3/HC4 (antibody, IgG4, V domains shown)
VH: B3 VH with P17S, V93K, S116V
VL: B6 VL with Q34N
B10: chimeric anti α2-integrin-IgG4 (murine variable domains on human IGKC and mutated human IGHG4) (antibody)
heavy: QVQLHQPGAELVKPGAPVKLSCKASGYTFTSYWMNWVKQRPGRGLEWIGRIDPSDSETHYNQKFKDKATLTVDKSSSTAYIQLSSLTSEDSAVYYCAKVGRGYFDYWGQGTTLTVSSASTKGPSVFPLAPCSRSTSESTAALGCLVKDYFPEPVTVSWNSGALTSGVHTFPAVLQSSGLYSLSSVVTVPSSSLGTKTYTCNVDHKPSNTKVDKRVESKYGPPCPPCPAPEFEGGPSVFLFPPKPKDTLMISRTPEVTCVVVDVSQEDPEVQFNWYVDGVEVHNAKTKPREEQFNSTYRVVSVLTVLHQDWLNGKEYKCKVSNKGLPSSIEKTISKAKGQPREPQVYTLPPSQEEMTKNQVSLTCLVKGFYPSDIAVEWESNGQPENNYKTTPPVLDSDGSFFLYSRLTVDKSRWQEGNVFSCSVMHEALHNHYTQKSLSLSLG
light: NIVLTQSPASLAVSLGQRATISCRASESVESYGNSFIYWYQQKPGQAPKLLIYLASNLASGVPARFSGSGSRTDFTLTIDPVEADDAATYYCQQNNEDPYTFGGGTKLEIKRTVAAPSVFIFPPSDEQLKSGTASVVCLLNNFYPREAKVQWKVDNALQSGNSQESVTEQDSKDSTYSLSSTLTLSKADYEKHKVYACEVTHQGLSSPVTKSFNRGEC
notes: Expressed in HEK 293-FS; also called IgG4 mAb; Antibody

Columns and labels:
[1] = target: T1, human α2β1 integrin on human platelets (human, UniProt P17301 30-1181; P05556 21-798); test: cell-based or functional assay
T1 sequence (P17301 30-1181 limits assumed, chain 1 of 2): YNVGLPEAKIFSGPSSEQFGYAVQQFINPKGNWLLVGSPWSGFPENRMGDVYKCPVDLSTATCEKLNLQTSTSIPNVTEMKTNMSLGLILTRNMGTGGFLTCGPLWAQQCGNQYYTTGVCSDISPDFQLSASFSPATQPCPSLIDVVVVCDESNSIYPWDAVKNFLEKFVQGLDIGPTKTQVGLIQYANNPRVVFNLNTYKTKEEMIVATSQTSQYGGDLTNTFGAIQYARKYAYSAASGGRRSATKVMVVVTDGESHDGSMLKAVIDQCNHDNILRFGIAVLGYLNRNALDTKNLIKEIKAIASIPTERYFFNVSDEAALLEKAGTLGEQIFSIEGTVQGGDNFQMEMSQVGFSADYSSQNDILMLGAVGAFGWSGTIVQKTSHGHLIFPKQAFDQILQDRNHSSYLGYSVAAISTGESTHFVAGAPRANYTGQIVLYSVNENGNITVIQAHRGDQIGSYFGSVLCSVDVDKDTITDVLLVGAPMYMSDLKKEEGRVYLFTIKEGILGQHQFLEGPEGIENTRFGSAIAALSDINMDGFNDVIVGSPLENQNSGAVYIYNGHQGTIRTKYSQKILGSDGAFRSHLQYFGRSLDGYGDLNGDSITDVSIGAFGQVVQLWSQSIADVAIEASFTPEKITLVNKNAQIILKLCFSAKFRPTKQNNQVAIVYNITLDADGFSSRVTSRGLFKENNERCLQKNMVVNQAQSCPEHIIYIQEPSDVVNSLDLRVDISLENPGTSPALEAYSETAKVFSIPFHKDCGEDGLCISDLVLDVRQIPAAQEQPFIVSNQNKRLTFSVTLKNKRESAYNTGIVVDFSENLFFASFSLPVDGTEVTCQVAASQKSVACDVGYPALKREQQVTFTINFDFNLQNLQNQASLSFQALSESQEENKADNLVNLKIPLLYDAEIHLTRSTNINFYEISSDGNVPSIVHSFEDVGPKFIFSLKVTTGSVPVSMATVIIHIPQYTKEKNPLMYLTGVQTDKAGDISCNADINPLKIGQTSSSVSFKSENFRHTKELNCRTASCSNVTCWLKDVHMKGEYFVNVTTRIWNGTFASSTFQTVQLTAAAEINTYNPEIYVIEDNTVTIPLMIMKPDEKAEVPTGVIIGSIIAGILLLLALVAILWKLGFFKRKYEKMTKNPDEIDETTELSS
T1 sequence (P05556 21-798 limits assumed, chain 2 of 2): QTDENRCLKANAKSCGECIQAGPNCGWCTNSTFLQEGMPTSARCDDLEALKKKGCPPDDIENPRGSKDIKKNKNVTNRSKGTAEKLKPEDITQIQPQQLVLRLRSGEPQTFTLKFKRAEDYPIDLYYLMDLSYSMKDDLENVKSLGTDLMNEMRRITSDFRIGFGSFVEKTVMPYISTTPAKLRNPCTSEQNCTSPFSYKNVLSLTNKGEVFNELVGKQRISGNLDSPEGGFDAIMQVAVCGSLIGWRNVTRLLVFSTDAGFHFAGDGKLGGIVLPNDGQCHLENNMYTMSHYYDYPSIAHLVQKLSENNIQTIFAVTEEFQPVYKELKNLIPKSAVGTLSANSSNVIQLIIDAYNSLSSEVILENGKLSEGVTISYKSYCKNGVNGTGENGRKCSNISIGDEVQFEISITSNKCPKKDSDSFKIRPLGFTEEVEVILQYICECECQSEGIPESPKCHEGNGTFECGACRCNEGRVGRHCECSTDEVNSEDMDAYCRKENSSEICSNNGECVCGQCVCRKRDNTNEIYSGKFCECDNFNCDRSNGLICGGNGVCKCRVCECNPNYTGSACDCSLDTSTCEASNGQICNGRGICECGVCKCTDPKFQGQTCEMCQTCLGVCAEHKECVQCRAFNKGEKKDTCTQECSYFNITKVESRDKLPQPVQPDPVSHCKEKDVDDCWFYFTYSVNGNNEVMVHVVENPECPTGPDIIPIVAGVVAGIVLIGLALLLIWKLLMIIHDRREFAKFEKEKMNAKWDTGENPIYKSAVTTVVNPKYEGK

[2] = target: T1, human α2β1 integrin on human platelets; test: cell-based or functional assay; remark: listed apart in the source
[3] = target: T1, human α2β1 integrin on human platelets; test: cell-based or functional assay; remark: listed apart in the source
[4] = target: T2, recombinantly expressed integrin α2β1 (human, UniProt P17301 30-1132; P05556 21-728, limits assumed); test: solid phase assay: inhibition of biotinylated collagen binding to coated α2β1
T2 construct: The assay paragraph gives neither species nor construct limits; also called a2β1; recombinant α2 integrin
T2 sequence (P17301 30-1132 limits assumed, chain 1 of 2): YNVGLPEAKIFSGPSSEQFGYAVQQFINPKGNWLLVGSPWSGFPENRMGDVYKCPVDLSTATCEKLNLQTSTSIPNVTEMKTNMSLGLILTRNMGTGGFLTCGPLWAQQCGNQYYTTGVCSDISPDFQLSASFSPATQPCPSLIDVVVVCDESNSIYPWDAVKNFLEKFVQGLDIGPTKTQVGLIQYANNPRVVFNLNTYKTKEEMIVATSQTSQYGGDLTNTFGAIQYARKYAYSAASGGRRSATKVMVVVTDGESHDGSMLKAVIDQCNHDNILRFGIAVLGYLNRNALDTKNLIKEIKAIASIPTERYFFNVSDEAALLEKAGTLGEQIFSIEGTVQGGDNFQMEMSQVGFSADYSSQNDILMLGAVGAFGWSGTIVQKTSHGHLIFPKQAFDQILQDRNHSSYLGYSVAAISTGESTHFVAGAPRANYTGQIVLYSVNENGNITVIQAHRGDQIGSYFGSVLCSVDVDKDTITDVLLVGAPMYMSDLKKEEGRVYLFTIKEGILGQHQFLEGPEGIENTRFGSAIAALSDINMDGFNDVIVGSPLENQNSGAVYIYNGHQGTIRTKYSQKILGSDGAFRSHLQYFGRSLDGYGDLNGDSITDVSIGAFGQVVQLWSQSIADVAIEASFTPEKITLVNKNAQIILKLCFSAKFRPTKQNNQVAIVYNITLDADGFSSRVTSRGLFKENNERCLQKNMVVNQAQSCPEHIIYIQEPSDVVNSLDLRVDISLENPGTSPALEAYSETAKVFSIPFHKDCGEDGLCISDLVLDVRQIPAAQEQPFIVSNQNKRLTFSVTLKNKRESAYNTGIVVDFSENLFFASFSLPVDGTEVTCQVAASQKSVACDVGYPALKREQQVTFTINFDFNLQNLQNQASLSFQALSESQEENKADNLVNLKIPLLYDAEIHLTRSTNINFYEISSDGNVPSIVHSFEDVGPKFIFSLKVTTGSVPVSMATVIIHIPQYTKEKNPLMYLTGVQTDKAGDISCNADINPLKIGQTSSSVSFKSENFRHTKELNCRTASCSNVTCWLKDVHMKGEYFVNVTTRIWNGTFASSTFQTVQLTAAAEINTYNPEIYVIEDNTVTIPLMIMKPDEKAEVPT
T2 sequence (P05556 21-728 limits assumed, chain 2 of 2): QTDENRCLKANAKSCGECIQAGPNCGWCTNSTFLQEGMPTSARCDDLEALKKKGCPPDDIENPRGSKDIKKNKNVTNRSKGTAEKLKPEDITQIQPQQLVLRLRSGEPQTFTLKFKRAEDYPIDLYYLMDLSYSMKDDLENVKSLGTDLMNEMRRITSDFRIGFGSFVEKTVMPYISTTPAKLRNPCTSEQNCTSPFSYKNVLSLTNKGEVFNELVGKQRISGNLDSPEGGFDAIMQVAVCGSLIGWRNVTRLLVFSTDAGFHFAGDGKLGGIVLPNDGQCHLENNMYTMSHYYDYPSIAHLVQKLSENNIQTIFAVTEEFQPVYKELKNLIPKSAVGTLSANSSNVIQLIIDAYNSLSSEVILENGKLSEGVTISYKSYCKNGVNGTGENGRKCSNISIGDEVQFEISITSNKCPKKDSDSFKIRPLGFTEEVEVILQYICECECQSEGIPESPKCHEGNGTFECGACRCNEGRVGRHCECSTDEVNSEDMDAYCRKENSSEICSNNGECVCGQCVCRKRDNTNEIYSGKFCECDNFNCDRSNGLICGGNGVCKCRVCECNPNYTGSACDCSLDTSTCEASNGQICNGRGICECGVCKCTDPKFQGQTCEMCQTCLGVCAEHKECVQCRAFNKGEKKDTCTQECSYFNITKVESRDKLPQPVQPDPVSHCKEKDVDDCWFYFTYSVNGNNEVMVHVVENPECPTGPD

[5] = target: T2, recombinantly expressed integrin α2β1; test: solid phase assay: inhibition of biotinylated collagen binding to coated α2β1, 4% HSA
[6] = target: T3, human integrin α2 I domain, recombinantly expressed in E. coli (human, UniProt P17301 169-368, limits assumed); test: SPR Biacore 3000, Fab immobilised by amine coupling, I-domain as analyte, 1:1 model with mass transfer
T3 construct: Analyte of the Biacore experiments; also called integrin α2β1 I-domain; integrin I-domain
T3 sequence: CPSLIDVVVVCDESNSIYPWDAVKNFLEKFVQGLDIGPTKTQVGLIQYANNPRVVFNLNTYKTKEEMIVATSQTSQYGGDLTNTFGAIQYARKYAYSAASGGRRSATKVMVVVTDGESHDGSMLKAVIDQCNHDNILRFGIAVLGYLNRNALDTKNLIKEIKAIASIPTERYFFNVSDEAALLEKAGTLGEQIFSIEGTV
Description: (§1) Surface plasmon resonance technology on a Biacore 3000 (GE Healthcare) was used for detailed kinetic characterisation of the purified antibody and the corresponding Fab fragment. A direct binding assay was used with the anti-integrin antibody or the Fab fragment as the ligand and the integrin α2β1 I-domain as analyte. Typically, 600 RU of antibody or Fab fragment were immobilised on a research grade CMS chip by amine reactive coupling, resulting in an Rmax of 80 and 140 RU for the I domain bound to the antibody and the Fab fragment, respectively. Binding kinetics were measured over a concentration range between 0.4 to 28 nM I-domain in HBS-P buffer supplemented with 4 mM MgCl2 (10 mM HEPES pH 7.4, 150 mM NaCl, 0.005% Surfactant P20) at a flow rate of 30 μl/min. Chip surfaces were regenerated with 10 mM glycine pH 2.2. Kinetic parameters were analysed and calculated in the BIAevaluation program package (version 4.1) using a flow cell without immobilised anti-integrin antibody or Fab fragment as reference. A 1:1 binding model with mass transfer was applied for a global fit of the data for curves corresponding to analyte concentrations from 0.4-28 nM […].

[7] = target: T4, α2-I-domain GST aa 140-339 (human, UniProt P17301 169-368); test: solid phase assay: inhibition of biotinylated collagen binding to coated α2-I-domain
T4 construct: May be the same protein as m4; also called I-domain of integrin α2β1 integrin; not shown: GST
T4 sequence: T3 sequence
Description: For the Solid Phase Assay, integrin (α₂-I-domain: α₂-I-domain GST aa 140-339 in TBS/5 mM Mn²⁺, 50 μl/well) was immobilized on 96-well plate (Corning Costar, 3690), at room temperature overnight. Then, 25 μl/well of blocking solution (5% BSA (crude) (A7906), 1×TBS) were added and discarded. 200 μl/well of blocking solution were added and left for 3 h at room temperature. After a washing step (3 times with 200 μl/well binding buffer: 1×TBS and 0.1% BSA (A7638) and 2 mM Mn²⁺; TBS: 150 mM NaCl, 25 mM Tris (Fluka 93371) pH7.4), samples were incubated at RT for 3 h stationary with 50 μl of:
After a washing step (3 times with 200 μl/well binding buffer), samples were incubated with 50 μl/well ExtrAvidin Peroxidase (Peroxidase conjugate, Sigma E2886; 1:500 in binding buffer) for 30 min at RT and again washed 4 times with 200 μl/well binding buffer. […]

[8] = target: T3, human integrin α2 I domain, …; test: SPR Biacore 3000, antibody immobilised by amine coupling, I-domain as analyte, 1:1 model with mass transfer
Description: as §1

| Binder | Inhibition of binding of washed platelets to collagen, IC50 [1] | Inhibition of binding of platelets to collagen in platelet rich plasma, MW IC50 [2] | further results |
| --- | --- | --- | --- |
| B1 | 0.023 µg/mL | 0.11 µg/mL |  |
| B2 | 0.031 µg/mL | 0.224 µg/mL |  |
| B3 |  |  | Human platelet adhesion to collagen under shear (whole blood) 3000 s-1, IC50 [3]: 1.3 nM and 0.06 µg/mL; Static human platelet adhesion to collagen (PRP), IC50 [3]: 0.3 µg/mL and 6.7 nM; Static human platelet adhesion to collagen (washed plt), IC50 [3]: 0.04 µg/mL and 0.8 nM; IC50 [4]: 0.2 µg/mL and 4.2 nM; IC50 [5]: 0.4 µg/mL and 8.2 nM; Kd [6]: 0.84 nM; koff [6]: 0.00083 s⁻¹; kon [6]: 990000 M⁻¹ s⁻¹ |
| B4 | 0.012 µg/mL | 0.132 µg/mL |  |
| B5 | 0.092 µg/mL | 3.96 µg/mL |  |
| B6 | 0.068 µg/mL | 4.11 µg/mL |  |
| B7 | 0.021 µg/mL | 0.277 µg/mL |  |
| B8 | 0.057 µg/mL | 3.25 µg/mL |  |
| B9 | 0.016 µg/mL | 0.193 µg/mL |  |
| B10 |  |  | Static human platelet adhesion to collagen (PRP), IC50 [3]: 0.3 µg/mL and 6.7 nM; Static human platelet adhesion to collagen (washed plt), IC50 [3]: 0.017 µg/mL and 0.1 nM; IC50 [4]: 0.05 µg/mL and 0.3 nM; IC50 [7]: 0.2 µg/mL and 1.5 nM; Kd [8]: 1.35 nM; koff [8]: 0.00117 s⁻¹; kon [8]: 860000 M⁻¹ s⁻¹ |

Source: US20130156786A1 (Sanofi, published 2013)
